The values below come from paper PMC8881610.

This test addresses human GLP-1R, wild-type, on cells (human) (UniProt P43220).

human GLP-1R, wild-type, on cells (human), sequence (P43220 24-463): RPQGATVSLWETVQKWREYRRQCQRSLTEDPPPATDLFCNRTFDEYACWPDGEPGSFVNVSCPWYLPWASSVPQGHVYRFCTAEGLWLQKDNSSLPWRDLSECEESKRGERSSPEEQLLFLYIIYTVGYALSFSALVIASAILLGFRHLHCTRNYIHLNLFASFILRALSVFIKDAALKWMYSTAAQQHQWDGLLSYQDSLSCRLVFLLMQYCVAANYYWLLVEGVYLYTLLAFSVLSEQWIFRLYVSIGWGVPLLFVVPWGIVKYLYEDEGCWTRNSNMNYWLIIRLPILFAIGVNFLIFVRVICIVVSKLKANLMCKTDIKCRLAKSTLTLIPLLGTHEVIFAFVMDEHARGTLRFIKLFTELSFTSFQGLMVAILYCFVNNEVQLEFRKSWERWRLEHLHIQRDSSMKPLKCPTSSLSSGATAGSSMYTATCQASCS

non-acylated tirzepatide (peptide) had a cAMP response, EC50, 0.1% BSA of 4.66 pM and an other of 0.9 pM.

Substance tirzepatide (peptide) had an other of 3.05 pM.
